# Results published in patent US20250382602.
# Residue numbers refer to the chain shown, from its start.
# Experiments:
# [1] = target: T1, Dda 1993 K177D K177D (Enterobacteria phage T4) (UniProt P32270); conditions: nanopore translocation; control is an unspecified Dda variant, background mutations not given
# T1 sequence: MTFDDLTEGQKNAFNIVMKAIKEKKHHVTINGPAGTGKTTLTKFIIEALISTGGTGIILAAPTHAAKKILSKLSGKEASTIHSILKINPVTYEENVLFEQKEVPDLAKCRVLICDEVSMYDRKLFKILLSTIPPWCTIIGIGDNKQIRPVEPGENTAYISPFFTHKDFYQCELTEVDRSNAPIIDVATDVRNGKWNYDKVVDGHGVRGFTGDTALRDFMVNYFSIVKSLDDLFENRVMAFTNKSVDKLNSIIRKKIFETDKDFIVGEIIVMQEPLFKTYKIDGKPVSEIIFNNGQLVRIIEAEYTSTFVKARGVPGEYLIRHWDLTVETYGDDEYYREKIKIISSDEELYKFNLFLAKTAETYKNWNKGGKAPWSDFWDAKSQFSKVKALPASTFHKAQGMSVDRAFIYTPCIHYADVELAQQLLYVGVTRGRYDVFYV
# [2] = target: T2, Dda 1993 K177H K177H (Enterobacteria phage T4) (UniProt P32270); conditions: nanopore translocation; background mutations not given
# T2 sequence: T1 sequence with D177H
# [3] = target: T3, Dda 1993 K177Q K177Q (Enterobacteria phage T4) (UniProt P32270); conditions: nanopore translocation; background mutations not given
# T3 sequence: T1 sequence with D177Q
# [4] = target: T4, Dda 1993 K177S K177S (Enterobacteria phage T4) (UniProt P32270); conditions: nanopore translocation; background mutations not given
# T4 sequence: T1 sequence with D177S
# [5] = target: T5, Dda 1993 K177T K177T (Enterobacteria phage T4) (UniProt P32270); conditions: nanopore translocation; background mutations not given
# T5 sequence: T1 sequence with D177T
# [6] = target: T6, Dda 1993 K177W K177W (Enterobacteria phage T4) (UniProt P32270); conditions: nanopore translocation; background mutations not given
# T6 sequence: T1 sequence with D177W
substance,measurement,setting,value
barcoded 3.6 kb DNA analyte ligated to sequencing Y adaptor,activity (bps speed delta vs control),[1],3.07
same,activity (bps speed delta vs control),[2],10.6
same,activity (bps speed delta vs control),[3],59.7
same,activity (bps speed delta vs control),[4],-31.1
same,activity (bps speed delta vs control),[5],22.6
same,activity (bps speed delta vs control),[6],-23.4
